# Assay results taken from patent US6403637B1, “Methods of modulating matrix metalloproteinase activity and uses thereof” (priority 1999, dated 2002).
# B1: Human MMP-2: human 72 kDa gelatinase (MMP-2) (protein, UniProt P08253 110-660, looked up)
# 72 kDa type IV collagenase: YNFFPRKPKWDKNQITYRIIGYTPDLDPETVDDAFARAFQVWSDVTPLRFSRIHDGEADIMINFGRWEHGDGYPFDGKDGLLAHAFAPGTGVGGDSHFDDDELWTLGEGQVVRVKYGNADGEYCKFPFLFNGKEYNSCTDTGRSDGFLWCSTTYNFEKDGKYGFCPHEALFTMGGNAEGQPCKFPFRFQGTSYDSCTTEGRTDGYRWCGTTEDYDRDKKYGFCPETAMSTVGGNSEGAPCVFPFTFLGNKYESCTSAGRSDGKMWCATTANYDDDRKWGFCPDQGYSLFLVAAHEFGHAMGLEHSQDPGALMAPIYTYTKNFRLSQDDIKGIQELYGASPDIDLGTGPTPTLGPVTPEICKQDIVFDGIAQIRGEIFFFKDRFIWRTVTPRDKPMGPLLVATFWPELPEKIDAVYEAPQEEKAVFFAGNEYWIYSASTLERGYPKPLTSLGLPPDVQRVDAAFNWSKNKKTYIFAGDKFWRYNEVKKKMDPGFPKLIADAWNAIPDNLDAVVDLQGGGHSYFFKGAYYLKLENQSLKSVKFGSIKSDWLGC
# Tested on: UMR 106-01 rat osteosarcoma cells
# Assay: Binding of 125I-labeled proteinases to UMR 106-01 cells
# Settings: 125I-labeled ligand 8 nM; means ± SEM for triplicate wells
molecule,measurement,value
B1,Specific binding,0.0 ± 0.0 fmol/2.6 × 10^5 cells
